Reference: patent US12247072
Where two headings read alike, the source gives them in different places.

Tests used:
[1] = target: keyhole limpet hemocyanin; assay: polyreactivity ELISA
[2] = target: keyhole limpet hemocyanin; assay: polyreactivity ELISA; remark: listed apart in the source

- Binding to KLH (A450 normalised to buffer control) [1]: 47.1
- Binding to KLH (A450 normalised to buffer control) [2]: 24.4
Substance: Bococizumab (antibody)
